# Assay results: the DeepSol protein solubility set
# Assay: soluble on expression in E. coli; label from the status in PepcDB or PDB records
row,Sequence,soluble on expression in E. coli
1,MNSCDFRVFLQEFGTTVHLSLPGSVSEKERLLLKLLMQGMSVTEISQYRNRSAKTISHQKKQLFEKLGIQSDITFWRDIFFQYNPEIISATGSNSHRYINDNHYHHIVTPEAISLALENHEFKPWIQPVFCAQTGVLTGCEVLVRWEHPQTGIIPPDQFIPLAESSGLIVIMTRQLMKQTADILMPVKHLLPDNFHIGINVSAGCFLAAGFEKECLNLVNKLGNDKIKLVLELTERNPIPVTPEARAIFDSLHQHNITFALDDFGTGYATYRYLQAFPVDFIKIDKSFVQMASVDEISGHIVDNIVELARKPGLSIVAEGVETQEQADLMIGKGVHFLQGYLYSPPVPGNKFISEWVMKAGG,soluble
2,MNSFYSQEELKKIGFLSVGKNVLISKKASIYNPGVISVGNNVRIDDFCILSGKVTIGSYSHIAAYTALYGGEVGIEMYDFANISSRTIVYAAIDDFSGNALMGPTIPNQYKNVKTGKVILKKHVIIGAHSIIFPNVVIGEGVAVGAMSMVKESLDDWYIYVGVPVRKIKA,soluble
3,MNSNKELMQRRSQAIPRGVGQIHPIFADRAENCRVWDVEGREYLDFAGGIAVLNTGHLHPKVVAAVEAQLKKLSHTCFQVLAYEPYLELCEIMNQKVPGDFAKKTLLVTTGSEAVENAVKIARAATKRSGTIAFSGAYHGRTHYTLALTGKVNPYSAGMGLMPGHVYRALYPCPLHGISEDDAIASIHRIFKNDAAPEDIAAIVIEPVQGEGGFYASSPAFMQRLRALCDEHGIMLIADEAQSGAGRTGTLFAMEQMGVAPDLTTFAKSIAGGFPLAGVTGRAEVMDAVAPGGLGGTYAGNPIACVAALEVLKVFEQENLLQKANDLGQKLKDGLLAIAEKHPEIGDVRGLGAMIAIELFEDGDHNKPDAKLTAEIVARARDKGLILLSCGPYYNVLRILVPLTIEDAQIRQGLEIISQCFDEAKQ,soluble
4,MNSPPINEFIQAVVYDHSIATGLKACKTDQDIVDYAASKGFIFSSSEWQLYLALDRKTLSDSELAKILVVPVEHWSWAFRKVALWRAMLMDGV,not soluble
5,MNSRQQTILQMVIDQGQVSVTDLAKATGVSEVTIRQDLNTLEKLSYLRRAHGFAVSLDSDDVETRMMSNYTLKRELAEFAASLVQPGETIFIENGSSNALLARTLGEQKKNVTIITVSSYIAHLLKDAPCEVILLGGVYQKKSESMVGPLTRQCIQQVHFSKAFIGIDGWQPETGFTGRDMMRTDVVNAVLEKECEAIVLTDSSKFGAVHSYSIGPVERFNRVITDSKIRASDLMHLEHSKLTIHVVDI,not soluble
6,MNTDELEHRRFDDLFSLVADPGFLLVAWDLVRGNKGASAAGVDGSTASSIALWVGVEKFLDMLRSQIKDRSFQPMPVRERMIPKAGGKLRRLGIATITDRVVQASLKLARFGEAAPGKRTGRKTGTAPRADFTPAIGCAFRYSPVLEHHHHHH,not soluble
7,MNTDHERWRTEYAGGTAVAYDDKVVLQGDSARLAGLLQDGGGRAHIYFDGASRGNPGPAAIGWVIVTDDGIVAEGSERIGRATNNQAEYEALIEALAAAADYAFDEAVVKGDSQLIVKQVRGEWDTNDPTLREKRVRVRKLLEEFSEWSLDHVPREINDRADDLANEALDGLEHHHHHH,soluble
8,MNTHHHIVISIGSNYAAETNIPAAMRLLRDSYPTIRFSKPIENAPIDFPYPSGLFTNLTAHFYSSENREEVGRKLKGIELQLGRTYTKPFDGRVAIDLDLIVWNNTILKNVDYSRPYIQSGLQELRINIQTQLNMTKESRSETFFHNKPNNWNCAQAVQKGFQDLTGMTDEAIEEEYRSKGGGRAEGGLCGALYSANRILESKGLQPVSQEFQAHAGGITCRELKGELKFPCNNCVRLAEELVEQRLSESQTID,not soluble
9,MNTINRNVYPVSGLSTQSVNPDSDGIQPPDVKSGHNSQLIDFSSPQQVNGLQSSLSLSGSRPQVPATRAASDASENPVELLLNKLVEAIRNILKDLLSLFKGDQQQDQAPPPAQTQREQAPSFSQLSQTPSSASPSSPSPSAAPAPAPTPTPTEKPFVVQNDHPADKPVTVQKNTAPTPPDPVQTQDKTSVTAPPKPVAATPAAHPRATTPVTEKPDTEEKVAKPAPRAAHGQGADMSGMIGFAKEANTTGGNNGEVVTVNTVADLKKYMEDDTARTVKLGANLSADSKVSINFGANKTLLGTDKGNSLHNIYLASGKTASNDIFQNLNFTHDSRYRENGDMQMFISSGQKYWIDHITATGTKDQNPKGLDKLLYVGGKADNVSLTNSRFQNNEYGVILGQPDDSADAKAEYKGYPRMTIANNVFSDLDVRAPGLMRHGQFDVFNNSINDFHLGFTATGDATILSQANYFAKGVDVSNKASNSGVLDDYGDAHFKDIGSNVSFTQKSPVTAWTPSYNRDIKTAEAARAYDLANAGAEAVR,not soluble
10,MNTMVKLPDSRWPGWRRRLYWWMHEAVEAEEVISLDLETTSLDPRRADILSIGAVLVRRGKLVMGERLELYVEPPPSLDAESIRIHKLRRADLEGQLQLEQALRQVLAFIGDRPLLGYYLSFDVAVLNRHLRQLLDRQLHNPSIEISSLYHRKVSRHFPDAHIDLRFDTLARALDVPVSGRHTALGDAQAVALMFMRLLKGPAPKVIH,not soluble
11,MNTNISGPLISLIVPVYNVKDYLKTCLQSILEQTYKNLEIILVDDGSDDGSSGICDEYARMDQRIKTIHLPHSGVSAARNAGLAAATGELLGFVDSDDWIDHDMYQYLYTLMQEHDADVSACTYLLEQEGRPSKIINNTGKLYVFSRKEIIRALVKNDLVKNYLWAKLFKRKLFDRLSFPVGRVYEDVAVLYKVFYSSQKVVLSCVSKYHYMIHKNESITRGGYDPVKEYHYFLSLYEQDKFIQNAELGGESSVGVLKRGIHLINHTLLCPPSPAFEDIIDETMLKMREYRHITPWQLGPSMSIKRYFMCKHFGFYRMLYRGYRAIFKRKHKLLID,not soluble
12,MNTPLKRFFKIGYVIENFLHPYHNKKLLPLSRGVNIKGIFVLLNTLWRVFQDGSLQDLWSFT,not soluble
13,MNTPNSSCTILFENLYDNDLALKLFNNRTIVDNILRNVKGDINNRLELRLVNKSFNLAAIHVIRKENRTVVFHKFNRCDRLHKISPCPDCSVHLNSVKLNKKNIFQYARFLKQTMKIMVIKIRIEDSKRVCCMITDVHQVIHKSLIGSDYDKVEEFVGIDQISFSTCIPCEKIAANCKVFGPVQNDMFNAILRLKHHYDVLQVKDMRLYKLMILNKEDPTVVEDFINSNITCSKLTIFLMYMYEKEAFGYSLPREFLDLLIKKWNVKTVEIVPRQDQPIPYYFHCNTDFIVPKAKFYVDYWTQPRSKYTLDGVEIDLQLTKVVEQQIKNRKSLFDNFIANARRIFPSNKITVRFSKEVCQEMMSQGNVEDFISGIILMTQKDAQPNSHISLKLYPEEVDAPLIDSFLRENFEKKFDSWNLETVSDSSANLPAEKCYQFFNQSTNCKIIFYICC,not soluble
14,MNTQILGLHHVTAMTSSAEKIYHFFTDILGLRLIKKTVNQDDIETYHLFFADDAGSPGTDMTFFDFPGLPKGTKGTNTISRTSFRVKDDATLDYWVSRFNEYAIDHGEIQERFGKKYLEFEDFDNQRYQLISDEKNQCVAAGTPWKKSNVPSEHALIGLGPAFVTVENYEHLQLVLTEVLGFKLIDAEGSFHLFEVGEGGNGASIIVEHREDLPAAQEGYGNVHHLALRVADEEALRFWIEKINRLEFPNSGFVERFYFKSEYFLAATHVLFELATDGPGFLEDETYEHAGEKLSLPPFLEPKRAGIEEFVRPFDTSDANVQRN,not soluble
15,MNVIALMAGDSNDFKEKGYTYPKYFLELDNKPLVQNIVESLKKIDCKITFIIRKEDNDQFFLGSSLKILAPFADVVCISGSTKGAVCTTLFAIDSINNEDEVLLINGDQLVKYDINDIIADFRERNLDGGIVTFESVHPRWSYVCLDEQGLVVQTSEKRPISNVATAGIYYYKRGLDLVESCFSVLKKDVQLNGSYYISSTFNELILRQKKVGVYKIDKKEYISFATTQMYENYINKKLEHHHHHH,soluble
16,MNVKGFRFSAVEAAIKKPGRLDLALICSDAPAAVAAVYTTNKVKAAPVLLDMERTTSGTCRAVVVNSGNANACTGDRGMEDARETTSLVAERIGASEHEVLVCSTGVIGVPLPMERIRGGIPSLVAGLGSATLDQIAAAIMTTDTFPKLEARTGTAGGVGYTIAGIAKGAGMIMPNMATMLAFVVTDAAVDPQWLDRVFRRANDTSFNAITVDGDMSTNDTAIIMANGAAGNPVLSEGSEGAAEFAVLLEEVLLSLAKLIVKDGEGATKFVEVTVKGARSDADAKRAAMAVANSCLVKTAFFGQDANWGRIFAAVGYSGADVEPDRAELFFDDVRMVQGGVFAGGDAEARGTGVLRKKEFTVTVDLHLGDGRATVYTSDLSYDYVKINADYRTLEHHHHHH,not soluble
17,MNVLIVDDEPLARERLSRMVNEIEGYRVLEDSASNGEEALALIEKHKPDVVLLDIRMPGIDGLQVAAKLCEREAPPAVVFCTAHDEFALEAFQVSAVGYLVKPVRAEHLIEALKKAERPNRVQLAAMTRPAAESGSGPRTHISARTRKGIELIPLDQVIYFIADHKYVTLRHEGGEVLLDEPLKALEDEFGDRFVRIHRNALVARKRIESMKRTPVGHFELFLRGLNGDALIVSRRHVAGVRKMMQQL,soluble
18,MNVTYLHDEDLDFLQHCSEEQLADFARLLTHNEKGKARLSSVLSHNELFKAMEGHPEQHRRNWQLIAGEFQHYGGDSIANKLRGHGKQYRAILLDVAKRLKLKADKSMSTFEIEQQLLEHFLRHTWQKMDAAHKQEFLQAVDAKVSELEELLPLLMKDRSLAKGVSHLLSTQLTRILRTHAAMSILGHGLLRGAGLGGPVGAALNGVKAMSGSAYRVTIPAVLQIACLRRMMAAVQA,not soluble
19,MNVYFLGGGNMAAAVAGGLVKQGGYRIYIANRGAEKRERLEKELGVETSATLPELHSDDVLILAVKPQDMEAACKNIRTNGALVLSVAAGLSVGTLSRYLGGTRRIVRVMPNTPGKIGLGVSGMYAEAEVSETDRRIADRIMKSVGLTVWLDDEEKMHGITGISGSGPAYVFYLLDALQNAAIRQGFDMAEARALSLATFKGAVALAEQTGEDFEKLQKNVTSKGGTTHEAVEAFRRHRVAEAISEGVCACVRRSQEMERQYQ,soluble
20,MNVYNKADSFSLESDSIKDVIHDYICWLSMTDETRPSIGNVFTAMETFKIDAVRYYDGNIYDLAKDINTMSFDSFIRSLQNITSKKDKLTVYGTMGLLSIVVDINKGRDVSNIKFAAGIIILMEYIFDDTDLSHLKIALYRRIQRRYPIDDDR,not soluble
21,MNYGFVKVAAAVPRVKVADCKFNSERLEGLITIAEGKGVQILTFPEMCITGYTCGDLFAQQLLLEQAEMALIQILNSTRQLDIISILGMPVVVNSTVINAAVVIQKGKILGVVPKTYLPNYKEFYEQRWFTSALQVSENSVRLCGQIVPMGNNLLFETAETTFGIEICEDLWATVPPSSSLALQGAEIIFNLSADDEGIGKHNYLCSLISQQSARCISGYVFSSSGFGESTTDVVFAGNGLIYENGYLLARSERFCMEEQLIINEIDVECIRAERRVNTTFAANKANCPGLEHHHHHH,not soluble
22,MNYIESLISSVDSQIDTLNKAMIEVQSTIDLLSNGDLASSPEKLISIGSGLFAKGNITIDEDLIVPIGSGIYVAETKERSVERLKKNLEDIKASIQKLLDQRKTLVDQYNTVYATEATRNVK,not soluble
